Measured values from the domain aggregation screens of Martell et al. (2025).

Assay: soluble fraction after stress (log2 fold change); higher = more stays soluble; pooled small domains, quantitative proteomics
Details: stress: 75 degC
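Also: 20 min heating vs room temperature control held 20 min.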

Sequence	soluble fraction (log2)
HMRININNASARQIADALPGVGLKTARDIKDFQTTLSGERYTRLDQLHSIKRVDWDEIFKADLVRV	-0.0802
HMRISMRDQVYEIIKNRILSREYSLGEPINIVHLSKELGISNTPIREALSQLETERLITINSNQKYHVT	-0.0513
HMRKDEFLQTLRRALNGNVPPRVVEENVRYYDGYISDEVRKGRSEEEVIEEIGDPRLIARTIEDTT	0.105
HMRKDRKVLMERGRHIFNDLLEKEGIVATNQLMTKLLASHHLRNRDELYLMLANDDISLSSKEIKDLS	-0.409
HMRKEDYLPIGSVINMDDRKFRVDSVDFDKDKVSLQDMALADARMPIFWEEPLTVVRELYEQQDE	0.135
HMRKEPSYASDIITRLKEADLIVVEGTLYPLLTRLKKDGLLSYEWRESTQGPPRKYYALTLDGET	-0.47
HMRKIGDVLRLHAGGLSKRRIAVSLNIGRTAVGDYISRARRAGLGWPLPEDLSEEALERLLFPPP	-3.08
HMRKIVEGVLTKKEGKWYLLTDIETYKISDASAEYHKAELNDRASALIPAQNPKVPFASLEKVFN	-1.01
HMRKLHFVMSEIYEDHPWIGSKLQDVFLPKDIRVVLVERDSKQFMPNGQTLFELGDRLTLSALHYDPA	-2.8
HMRKLTDRQRQILDLIKTIIAETGAPPTRAEISTALGFKSANAAQEHLQALAQKGMIDLVSGASRGIRLRG	-0.99
HMRKMELTEAAEKLIEEPDVVSAYRNMQQIFQQWREIGPVPREQRDEVWSHFKDLMTQVNRRHQAHFEN	0.113
HMRKPLDQSWVPDDDAMKILTNSGIEKEFIKNEIPEFILYWSDKGEISDSWNTKFISQIRRQWAKNQ	-0.0241
HMRKSAVSSTLTSIEGIGATRAKALLKHFKTVAAVSEADLKELEDAPGMTRPSALRVYEYFHGK	-0.342
HMRKSLGEIVFDRMERAIKSGAYSPDERLPTELDLAAEFEVSRPVIRDALKRLRERGLIYSRQGAGSFVRA	-0.813
HMRKTIQDFLSSNKVDIAKLLTLALEKTKEDLYKNLSYNLTNKELEKLKLLIKKREQGIPFAYLS	-0.348
HMRLADHVVEKLLALVQERGLQPGQKLPAERQLAEVLGVSRTSVREAIQKLVSQGVLSARRGDGTYVQS	-0.302
HMRLANGIGTVYKLSGNRRNPYIVRKTTGWEIDEESGKAKQKYITIGYAPTRAKGLEMLMDYNKNP	-0.895
HMRLDHIFSVVERLKGVSLGAGDRLEVQKYEDLLTVYKSKNALSSEEAQTLNDILASLLKMMAKYD	-1.05
HMRLDSELVSARLHRFMGTNRKPDGEIVEKIAAILEGHPIETLDAFLQSLNGRKIKSYGFFPTVLRREIAN	-0.319
HMRLEEVSVPQRLLAAIAEEREVQIGIVDGRGGTRVLRVEPLALEGGRLRARDVESGEEFTVLIHRVLL	-1.19
HMRLLAESIARGLDPEGSGGLWAKEAGAEALKLMETLAAEAPHGGSFTAAAYRDLFESLVHQGEVREA	-0.00417
HMRLLGEPLAGRLKKDVPVVTGRSTESKAIAQFFELRWSHLPDPEARTISVASGRIDFMDVGATRFSLR	0.0725
HMRLSDSEFESIENAIKEKLENSALTADVLVKELSFDEDKIWKVIRWLEDAEKISEDEAGTLLWKPR	-0.0971
HMRLSESLLDDIPGIGAARKRALLQSFGSVRKLRHADAEEIAAKVPGIGLNFAEKIVEALRKK	0.391
HMRLTTTPKTARGLTTMNRIIRAAEVEFGRKGYHYTGITDIAQRAKVASGTIYLYFTDKYSLYVHLLT	0.159
HMRLYTQDVAVLNRDVIQGEVITSDMVTTVNVHKRTVPTGALNLSEIPGNVAKFNIPASIPITASMVTK	-0.0186

Sequence	soluble fraction (log2)
HMRMLLKELLIQYEVKNDKSHVEVAKEVGVSLSTYYRWLNGESLHLKKRTIDRLSEVLHYDINQVVEES	-2.52
HMRMLSEGAQRMLRGLAVLEEASADRLLELHQGDYPGFVRSLFALESAGLFQRNGSGTWIRR	-0.91
HMRMNASERQNQIVDLLSQNGVMKIMDIADHFNVSRETIRRDLIILEDDNRIKKWFGGVISAN	-0.706
HMRMQRYYLTDMSEKGREALPGVLDEMGYAGRYTMSDNSIAINSNMIVLSKAIKRAEDIAHNE	-0.089
HMRMRPNERQKRIIELLSFRRHETIGNFANEFGVSRDTIKRDIITLQEEYPIISERGYEGGISLPDGYYI	-1.08
HMRMSLDEAKAVVLPIGEYKGRNMGEVLAIKPELIDFYASQKFNSSKYPYLKEAAQVILENQ	0.114
HMRMSPRERKIYQFIENHPGTKSGEMAEKLGIPLPTIKRLLSDMVASKLLQKHGTGAGTNYSIEE	0.43
HMRMSQLSRLISILTLLKSKRLLTATELAEKYDVSIRTVYRDIRKLEEAGIPVYTIEGRGYSLMDNYT	-1.42
HMRNANENTLKDLPVAVPNIHVSNIEEKKDFHLIQLEYSQEFDPREDLFNFAVNSSWVILKMTPT	0.215
HMRNDIFDQLTEREMQILQEVAKGYRNKQIADHLFISESTVKVHMKSLLKKLQVPSRTAATVLYLERYG	-1.55
HMRNEFEAHSDGTRIQLNDRSKATFSVYDVQGRLIHSFQDFSGSSFNIEPKNQLLIITRETAEGVSVKKLV	0.34
HMRNKTVKEVLDYIEKNSEFIFFYYSKAIDTKRIVSLSVKDQPITVILDQLFKNTDVLYEIKDRQISLKRE	0.1
HMRNTETMKEIQAFVEDYFFEYHQSPSMQKVADAIGTSKSTAYYYVMEMARNGMLHYDGKTIETPHTQKS	-0.82
HMRPDDPYLVIGASREMGDEELKRHYRRLVAETHPDRGIARGLPAEAIAIATRRLAAINAAWDAIERERGL	0.000257
HMRPDSFEAGEAEAGSRLDRLLAARLGIPRNQVQQWIGGGRVTVDAEPVRASLVVRAGMRIAWDPPPPP	-1.56
HMRPEKLVLKALRGAHGPLSAEEVAGRIEADGGAGLDVARVEHVLGQLERSGTVAALGGGKYLALR	0.692
HMRPHDDHLREQLLGIATETIARTGVEGLSLRTLATDAGTSTSAVYQLFGSRAALLDAVYLRVLE	-1.47
HMRPLISQTLRIDRGEGDIAGPLGVLAKEYPHLSMGSYPFQKDGIYGAHVVIRGSDPGMVEAAMDKLKAAF	0.338
HMRPLTPLEKLTPDADGKYYHIVQSGETLSWIAKLYETTAEKLQAWNNLFSSDIFPNQKLLLQVTPP	0.134
HMRPPLEWGTHGEITTRTVASGYVRASARVRLWDGELQRMTATASTASDARASLQHRIAERLRFSEL	-1.45
HMRPPLRAAIIDHLARDWHTVAELARLLPASGAHVSRLVVELRAVGAVDERISHPDWPGNRPTEYRLRRA	-3.57
HMRPTHYSGPSVIAMINNRVWFSDGSRLAPGEHHDDLEVVGLSPPWSAKVRWQGVEFDVGLFE	-2.35
HMRQGHLDLLRQIHALPPSTREVVYLRAFGGLSFREIGDVLGRTETWARVTFYRGKEALRKG	-0.106
HMRQHHMIISTKLGTPKEELAKLVSGFEDQGLRVSVITGTDYTVIGLVGDTTHLDEKRIRANPYVDNVQRV	-0.813
HMRQIMIIVLKSTATKEDSLLFKNKLEQEYGVKVNEWTGVESTVLGLIGDTTKIDIDYISAQDIVESVKRV	-2.27
HMRQKTTFFATESFELPNGEKVEEGQIFRLNDGAFNIAEQQGITRFLTSEANYGRMIAANAEVEKAKLDA	0.605

Sequence	soluble fraction (log2)
HMRQLISIYNNTIGADEIDQMRNILSNSGYKEGVDFAVQTADKKSVILVRRDLAGMIQEQLSGEGLPS	-0.119
HMRQNPESFLNHKVKKNESLESLTKKYELTENEIIFYNPLIQKIGLKKRMILKIPIYNNQNLVTKSVD	-0.15
HMRQPRGQRVTVREASSLLPFLFAHLTDRSRSAVKSLLRHGQIWVNGRVTTHFDMPLRPGDTVLISHERG	-1.33
HMRQSQEVSGGERYRRLTAYLDTHPFITRKEYSGITGLLKNKALNDLNLLVNKGYLEAMGRGSHKVYVRPM	-0.86
HMRQSSLRTRELLIDAARQLFARFGVEKTTMNDIAEASKRGRRTVYMYFNSKSDVFYAVVGRE	-0.0881
HMRQVFPNPSSSQIKLASSRIGQAFSILDQQGRVVLSGKVSEEAVIALENLAKGIYVLKIGSWSETILK	-2.89
HMRRATLERLANNTAEKAIRYKRSLALEPMNPQERRIIHAALQEVEGVSTHSVGTEPNRKVIVVPDGV	-0.329
HMRRFEFSDGSSNKFWQITRDGTSLTVTFGKIGTAGQTQLKELATEAAAIAEHDKLVKEKTKKGYAEVG	-0.174
HMRRGFGYVRKLPSGRWQASFVGPDLARHSAPHTFETKGDAEGWLGRRQADVVAGEWRPPVP	-0.00612
HMRRISLEDWQLIESLIRRDWSPEQISLWLKKYKKIRVSHEWIYQYILKDKSKAGDLHTHLRSR	0.00689
HMRRKNQVQSSYQKRENGTYTVRFFLSDDMGSIMDLQLMATREDMARALRERFLKDPEKIYGQIMQMLLR	-1.23
HMRRLGTTEIAGILRREISQGILIAKERLPSERSLADTYGVARGTVRQALNLLAREGLVQIRRSSGAYVTF	-0.458
HMRRMAYLVGQRGLAMGDFISGTGQVRIGDTVWRAEAVEGELVRTGDTVVVEGAKMTTAIVRRVM	-1.81
HMRRRKPLVSYEYGTRVYAPSEGEPRYRVVATDADGQRVFAKFSSEEAARHRAREIEGRLATS	-0.26
HMRRSSQQLTLTEVSTIKEMVTSEEYRHVPTGTLALLAQRLRKVFASSSTWYRLVRIYKWRRPRGRIH	-0.329
HMRRSVYQANVLDAIKHLVDQNELATTKAIAEYIGDDYQGNVSRAIRELLADRKIKKLPKVGVLQPYEA	-0.442
HMRRVEDVRTALEHFAAARNTTPMAMTLDQRREAMRELAASGLLNLRRALSEVAQTLGVARSTVYTYLP	-1.39
HMRSAKEYKAIREEIYRFIGAYITKHVYAPSNKEIAEAVGISGTTVHRHLIDMIDEGILETD	-2.65
HMRSFGTLRRLPSGRYQASYAGPDLRRHAAPTTFETKLDAEGWLRDEHRMIERDEWTAPAARSQLK	-0.0721
HMRSFRIGGLVEQGSIARDGQSLTVRFAVTDLAHKIPVTYTGLLPDLFKEGKGVVAEGKLGPDGVFHASQV	-0.0831
HMRSPIWKSITATLTAEIAGGQYRAGDKLPTEAELSQRFGVNRHTLRRALAEMAGAGLVVARRGAGVFVQG	-2.5
HMRSPLYVQIKQHILGDIRKGVWKPGEKLPTELDLAERFGVSVGTVRRAMGGLEDEGIISRREGSGTFVRT	-0.458
HMRSSAATMFGRIALKNKLVDEATLKKVMSELPAGADLGAVLVKQGLISEQHAEAIQKKITAHMKSAP	-0.114
HMRSSALDEIPGIGKQRKKNLLVHFTSVAKIKEASLDEIAAVPGMNRKAALVVVEFFQNQERE	-2.28
HMRSSNEAVSQRRDKILDYISATGRTSTEIVAKEFGVSVMTARRDLLYLMEKRLISKSSSGLFKVDNN	-3.09
